In US20150030595A1 (ANTIBODY AND RECEPTOR THERAPEUTICS, published 2015):
Like-named read-outs stand apart in the source and are kept apart here.

T1: ACVR2B-Fc fusion protein (human, UniProt Q13705 19-137)
T1 construct: also called water-soluble ACVR2B
T1 sequence: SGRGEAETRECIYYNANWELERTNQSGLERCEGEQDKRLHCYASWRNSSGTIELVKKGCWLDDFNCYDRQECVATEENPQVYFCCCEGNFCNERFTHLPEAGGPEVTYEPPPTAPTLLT


Experiments:
[1] = target: T2, anti-myc antibody coated on the ELISA plate; assay: phage ELISA, anti-myc coated
T2 construct: also called a-MYC; a-myc
Experimental: (§1) Colonies obtained from a group of the polyclonal phage antibodies having high binding capacity were cultured at a temperature of 37° C. for 16 hours in a 96-deep well plate (Bioneer 90030) containing 1 ml of a medium supplemented with 2×YTCM, 2% glucose, and 5 mM MgCl₂. 100 to 200 μl of the cultured cells were taken, and diluted with 1 ml of a medium supplemented with 2×YTCM, 2% glucose, and 5 mM MgCl₂ so that the OD₆₀₀ value of the cultured cells reached 1. Thereafter, the cells were cultured at a temperature of 37° C. for 2 to 3 hours in a 96-deep well plate so that the OD₆₀₀ value reached 0.5 to 0.7. Then, the cells were infected with an […] so that an MOI value became 1:20, and then cultured at a temperature of 30° C. for 16 hours in a medium supplemented with 2×YTCMK, 5 mM MgCl₂, and 1 mM IPTG. The cultured cells were centrifuged (at 4,500 rpm and 4° C. for 15 minutes) to collect a supernatant. Then, the supernatant was thoroughly dissolved in 4% PEG 6000 and 3% NaCl, and reacted on ice for an hour. The resulting reaction mixture was centrifuged again (at 8,000 rpm and 4° C. for 20 minutes), and the pellet was dissolved in PBS, and then centrifuged (at 12,000 rpm and 4° C. for 10 minutes) to obtain a supernatant, which was transferred to a new tube and stored at 4° C. Subsequently, a 96-well immunoplate was coated with antigens at a concentration of 100 ng per well by treating the immunoplate with the antigens at 4° C. for 16 hours, and each well was then blocked with skim milk (4%) dissolved in PBS. Each well was washed with 0.2 ml of PBS-Tween 20 (0.05%), and 100 μl of the monoclonal scFv-phages obtained by the above-described method were added to each well, and then reacted at room temperature for 2 hours. Each well was again washed four times with […] of PBS-Tween 20 (0.05%), and a secondary antibody, anti-M13-HRP, was diluted at 1:2000, added to each well, and then reacted at room temperature for an hour. Each well was washed with […] of PBS-Tween 20, colorimetrically developed, and then measured for optical density at 490 nm.

ACVR2B-Fc fusion protein [2] = target: T1, ACVR2B-Fc fusion protein; assay: phage ELISA, ACVR2B coated
Fc [3] = target: T3, Fc; assay: phage ELISA, Fc coated
T3 construct: domain: Fc

ACVR2B-Fc fusion protein [4] = target: T1, ACVR2B-Fc fusion protein; assay: phage ELISA; OD on ACVR2B divided by OD on a-myc
Fc [5] = target: T3, Fc; assay: phage ELISA, Fc coated; remark: listed apart in the source
Experimental: as §1

[6] = target: T2, anti-myc antibody coated on the ELISA …; assay: phage ELISA, anti-myc coated; remark: listed apart in the source
ACVR2B-Fc fusion protein [7] = target: T1, ACVR2B-Fc fusion protein; assay: phage ELISA, ACVR2B coated; remark: listed apart in the source
Experimental: as §1

Binder	OD490 [1] [OD]	OD490 (ACVR2B-Fc fusion protein [2]) [OD]	OD490 (Fc [3]) [OD]	Ratio (ACVR2B-Fc fusion protein [4])	OD490 (Fc [5]) [OD]	OD490 [6] [OD]	OD490 (ACVR2B-Fc fusion protein [7]) [OD]
ACVR2B A09 (monoclonal scFv-phage) (scFv, V domains shown, also called A9) VH: VQLVESGGGLVQPGRSLRLSCAASGFTFDSYWMSWVRQAPGKGLEWVANIKYDGSEKHYMDSVKGRFTISRDNAKNSVYLQMNSLRAEDTAVYYCAKGAWLDYWGQGTQVTVSS VL: IQMTQSPSAMSASVGDRVTITCRASQGISNYLAWFQQKPGKVPKRLIYAASSLQSGVPSRFSGSGSGTGFTLTITSLQPEDFATYYCLQHKSYPYTFGQGTKLEIK	1.17	2.18	0.048	1.86	0.0482	1.17	2.18
ACVR2B B12 (monoclonal scFv-phage) (scFv, V domains shown) VH: VQLVQSGAEVKKPGESLKISCKTSGYTFTHYWIGWVRQMPGKGLEWMGRINPTDSYADYSPSFQGHVIMSVDKSVSTAYLHWNSLKASDTAMYYCARGTALGVWGQGTTVTVSS VL: IQMTQSPSAMSASVGDRVTITCRASQGISNYLAWFQQKPGKVPKRLIYAASSLQSGVPSRFSGSGSGTEFTLTITSLQPEDFATYYCLQHKSYPYTFGQGTKLEIK	1.46	2.75	0.044	1.89	0.0447	1.46	2.76
ACVR2B B11 (monoclonal scFv-phage) (scFv, V domains shown) VH: VQLVESGGGLVQPGRSLRLSCAASGFTFDNHAMHWVRRAPGKGLEWVSGISWNGGTTAYADSVKGRFSIFRDNAEKSLYLQMNSLRAEDTAVYYCARGSSSGRYYFDYWGQGTLVTVSS VL: DIQMTQSPSSVSASVGDRVTITCRASQGISTYLNWYQHQSGKAPKLLIYGAFRLQSGVPSRFSGSGSGTDFTLTISNLQPEDFATYYCQQAKNFPLTFGGGTKVDIK	0.657	2.99	0.047	4.55	0.0477	0.657	2.99
ACVR2B B08 (monoclonal scFv-phage) (scFv, V domains shown, also called B8) VH: VQLVQSGGGLVHPGQSLRLSCTGSGFPFGDYSMTWVRQAPGKGLEWVGLVRSKAYGGTTEYAASVKGRFIMSRDDSRSIAYLQMNSLRAEDTAVYYCARGHYGMDVWGQGTTVTVSS VL: DIQMTQSPSSVSASVGDRVTITCRASQGISNWLAWYQQKPGKAPKLLIYAASSLQSGVPSRFSGSGSGTDFTLTISSLQPEDFATYYCQQAKSYPYTFGQGTKVEIK	1.16	2.64	0.045	2.28	0.0455	1.16	2.64
ACVR2B C07 (monoclonal scFv-phage) (scFv, V domains shown, also called C7) VH: QMQLVQSGGGLVKPGGSLRLSCAPSGFTFRDYHMSWIRQAPGKGLEWISNISNSGTNIYYADSVKGRFTISRDNAKNSLYLQMNSLRAEDTAVYYCARGHYGMDIWGQGTTITVSS VL: DIQMTQSPSSLSASVGDRVTITCRASQGIANYLAWYQQKPGKAPKLLIYAASTLQSGVPSRFSGSGSGTDFTLTISSLQPEDFATYYCQQVKSYPLSFGGGTKVEIK	0.441	2.98	0.043	6.75	0.0435	0.44	2.98
ACVR2B A06 (monoclonal scFv-phage) (scFv, V domains shown, also called A6) VH: VQLVQSGGGLVQPGRSLRLSCTASGFTFGDYAMSWVRQAPGKGLEWVGFIRSKRYDGTAEYAASVKGRFTISRDDSKNSLYLQMNSLRAEDTAVYYCARGHYAMDVWGQGTTVTVSS VL: DIQMTQSPSSLSASVGDRVTITCRASRSISNYLNWYQQKPGKAPKLLIYAASSLQSGVPSRFSGSGSGTDFTLTISSLQPEDFATYYCQQSYDTPFTFGLGNQLEIK	0.704	2.96	0.046	4.21	0.046	0.703	2.96
